Test results: patent US20250171532A1 (NB HEALTH LABORATORY, published 2025)
Substitutions are numbered along the chain they refer to.

Columns and labels:
mouse LPA1 [1] = target: T1, mouse LPA1 (mouse, UniProt P61793 1-364); assay: flow cytometry, mouse LPA1-stably expressing CHO cells, median fluorescence intensity
T1 construct: Untagged, on mouse LPA1-stably expressing CHO cells (Flp-In-CHO); also called mLPA1
Text: (§1) The human LPA1-stably expressing CHO cell and the mouse LPA1-stably expressing CHO cell were washed with PBS, then detached from the cell culture dishes by an enzyme-free cell dissociation buffer (Thermo Fisher Scientific, Inc.), then washed with PBS, and then collected by centrifugation. The human LPA1-stably expressing CHO cell and the mouse LPA1-stably expressing CHO cell were suspended at 1×10⁷ cells/mL in Fc Block (Sci-Tech Biosciences, Inc.) diluted by 500 times in FACS buffer, and then allowed to stand at 4° C. for 30 minutes to block the cells. The cells were collected by centrifugation and suspended in FACS buffer at 4×10⁶ cells/mL, and this suspension was dispensed into a V-bottom 96-well plate (Thermo Fisher Scientific, Inc.) at 25 μL (1×10⁵ cells)/well. As primary antibodies, the eleven types of LPA1 antibodies produced and purified by the method described above and a mouse isotype control antibody (Fujifilm Wako Pure Chemicals Corporation) were diluted stepwise, which was added to each well at 25 μL/well, and allowed to stand at 4° C. for 1 hour. The cells were collected by centrifugation and washed with 120 μL of FACS buffer. This washing operation was repeated twice. To the cell sediment, 25 μL each of Goat Anti-Mouse IgG H&L (DyLight 650) (Abcam) that was a secondary antibody diluted by 500 times in FACS buffer was dispensed, then suspended, and then allowed to stand at 4° C. for 1 hour. The cells were washed twice, then suspended in 50 μL of FACS buffer, and the binding of antibodies to the cells was measured using a flow cytometer (Agilent Novocyte).
(§2) A graph was created, in which a concentration of the antibody was plotted on the […] axis, and a median fluorescence intensity of the flow cytometer histogram was plotted on the horizontal axis. All of the eleven antibodies were confirmed to dose-dependently bind to the human LPA1-stably expressing CHO cell and the mouse LPA1-stably expressing CHO cell. The results of the binding of each antibody to the human LPA1-stably expressing CHO cell are presented in FIG. 2A to FIG. 2K, and the results of the binding of each antibody to the mouse LPA1-stably expressing CHO cell are presented in FIG. 3A to FIG. 3K.

human LPA1 [2] = target: T2, human LPA1 (human, UniProt Q92633 1-364); assay: cell-based or functional assay
T2 sequence (Q92633 whole entry): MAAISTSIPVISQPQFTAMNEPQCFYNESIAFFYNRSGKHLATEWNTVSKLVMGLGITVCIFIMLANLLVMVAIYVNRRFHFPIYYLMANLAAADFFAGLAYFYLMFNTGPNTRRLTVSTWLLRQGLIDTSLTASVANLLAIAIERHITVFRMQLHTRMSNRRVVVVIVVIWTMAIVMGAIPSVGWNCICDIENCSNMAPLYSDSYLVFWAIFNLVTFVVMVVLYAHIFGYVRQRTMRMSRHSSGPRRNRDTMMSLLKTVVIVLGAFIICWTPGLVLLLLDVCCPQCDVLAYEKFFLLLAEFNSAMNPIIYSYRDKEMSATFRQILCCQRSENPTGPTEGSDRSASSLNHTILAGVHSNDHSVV

mouse LPA1 [3] = target: T1, mouse LPA1; assay: cell-based or functional assay
[4] = target: T3, mouse LPA2 with FLAG tag (mouse LPA2 gene transfected cell) (mouse, UniProt Q9JL06 1-348); assay: flow cytometry, transfected HEK293FT cells, histogram shift
T3 construct: not shown: FLAG tag added at the 5' terminal of the gene
T3 sequence (Q9JL06 whole entry): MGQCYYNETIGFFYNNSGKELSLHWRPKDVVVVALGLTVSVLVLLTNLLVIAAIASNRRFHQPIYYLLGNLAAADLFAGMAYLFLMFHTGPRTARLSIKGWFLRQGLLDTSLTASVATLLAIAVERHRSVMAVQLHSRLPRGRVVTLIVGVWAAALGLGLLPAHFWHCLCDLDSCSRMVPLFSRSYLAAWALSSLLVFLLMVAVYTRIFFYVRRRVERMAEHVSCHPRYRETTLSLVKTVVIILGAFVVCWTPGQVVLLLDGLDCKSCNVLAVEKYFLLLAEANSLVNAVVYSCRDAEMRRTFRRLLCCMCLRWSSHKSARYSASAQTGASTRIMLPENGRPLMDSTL
Method: (§3) BTEK293FT cell was transfected with 10 μg of an expression vector carrying each synthetic gene using Lipofectamine 2000, to prepare a human LPA1 gene transfected cell, a mouse LPA1 gene transfected cell, a human LPA2 gene transfected cell, a mouse LPA2 gene transfected cell, a human LPA3 gene transfected cell, and a mouse LPA3 gene transfected cell.
(§4) The next day, the cells were washed with PBS, then detached from the cell culture dishes by an enzyme-free cell dissociation buffer (Thermo Fisher Scientific, Inc.), then washed with PBS, and then collected by centrifugation. Goat serum (Thermo Fisher Scientific, Inc.) was diluted by 2 times in FACS buffer (PBS containing 1% o of FBS), into which the cells were suspended at 1×10⁷ cells/mL. This suspension was allowed to stand at 4° C. for 30 minutes to block the cells. The cells were collected by centrifugation and suspended in FACS buffer at 4×10⁶ cells/mL, and this suspension was dispensed into a V-bottom 96-well plate (Thermo Fisher Scientific, Inc.) at 25 μL (1×10⁵ cells)/well.
(§5) The cells were collected by centrifugation and washed with 120 μL of FACS buffer. This washing operation was repeated twice. To the cell sediment, 25 μL each of Goat Anti-Mouse IgG H&L (DyLight 650) (Abcam) that was a secondary antibody diluted by 500 times in FACS buffer was dispensed, then suspended, and then allowed to stand at 4° C. for 1 hour. The cells were washed twice, then suspended in 50 μL of FACS buffer, and the whole content thereof was transferred to a V-bottom 96-well plate (Greiner), to measure the binding of antibodies to the cells using a flow cytometer (Agilent Novocyte).

[5] = target: T4, human LPA3 with FLAG tag (human LPA3 gene transfected cell) (human, UniProt Q9UBY5 1-353); assay: as above
T4 construct: also called EDG7; not shown: FLAG tag added at the 5' terminal of the gene
T4 sequence: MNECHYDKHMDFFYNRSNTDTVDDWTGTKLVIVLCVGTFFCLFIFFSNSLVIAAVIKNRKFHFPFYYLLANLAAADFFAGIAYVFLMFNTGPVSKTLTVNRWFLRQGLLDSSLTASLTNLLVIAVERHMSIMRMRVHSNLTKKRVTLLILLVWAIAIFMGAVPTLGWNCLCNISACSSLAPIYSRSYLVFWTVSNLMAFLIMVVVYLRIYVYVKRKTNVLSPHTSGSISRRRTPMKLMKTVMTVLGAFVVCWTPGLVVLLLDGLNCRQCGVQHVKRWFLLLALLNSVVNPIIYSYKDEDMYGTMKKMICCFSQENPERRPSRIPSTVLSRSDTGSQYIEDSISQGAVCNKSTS
Method: as §3, §4, §5

[6] = target: T5, mouse LPA3 with FLAG tag (mouse LPA3 gene transfected cell) (mouse, UniProt Q9EQ31 1-354); assay: as above
T5 construct: not shown: FLAG tag added at the 5' terminal of the gene
T5 sequence: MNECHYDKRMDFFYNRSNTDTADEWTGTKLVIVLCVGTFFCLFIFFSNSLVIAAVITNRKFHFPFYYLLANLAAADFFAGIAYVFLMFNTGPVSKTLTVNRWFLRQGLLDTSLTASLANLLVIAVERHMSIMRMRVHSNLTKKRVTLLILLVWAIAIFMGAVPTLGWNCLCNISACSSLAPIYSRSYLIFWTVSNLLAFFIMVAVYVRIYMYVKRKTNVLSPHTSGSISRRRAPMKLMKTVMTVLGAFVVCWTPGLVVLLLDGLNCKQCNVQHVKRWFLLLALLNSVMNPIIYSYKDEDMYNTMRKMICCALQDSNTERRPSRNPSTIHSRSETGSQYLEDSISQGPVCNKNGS
Method: as §3, §4, §5

[7] = target: T6, human LPA2 with FLAG tag (human LPA2 gene transfected cell) (human, UniProt Q9HBW0 1-348); assay: as above
T6 construct: also called EDG4; not shown: FLAG tag added at the 5' terminal of the gene
T6 sequence (Q9HBW0 other isoform, or with tags, fused parts or gaps): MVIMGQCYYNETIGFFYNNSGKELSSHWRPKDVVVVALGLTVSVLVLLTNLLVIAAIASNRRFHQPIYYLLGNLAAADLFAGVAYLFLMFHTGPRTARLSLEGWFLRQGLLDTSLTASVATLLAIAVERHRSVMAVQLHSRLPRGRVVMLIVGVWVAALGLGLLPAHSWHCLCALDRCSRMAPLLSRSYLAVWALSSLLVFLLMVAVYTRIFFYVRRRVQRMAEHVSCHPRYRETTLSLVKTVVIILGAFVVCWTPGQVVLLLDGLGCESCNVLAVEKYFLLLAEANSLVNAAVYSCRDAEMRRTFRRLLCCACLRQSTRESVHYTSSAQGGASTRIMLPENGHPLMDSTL
Method: as §3, §4, §5

human LPA1 [8] = target: T2, human LPA1; assay: cell-based or functional assay; remark: listed apart in the source
human LPA1 [9] = target: T2, human LPA1; assay: flow cytometry, human LPA1-stably expressing CHO cells, median fluorescence intensity
Text: as §1, §2

mouse LPA1 [10] = target: T1, mouse LPA1; assay: cell-based or functional assay; remark: listed apart in the source

T1 sequence (P61793 whole entry): as the sequence (Q92633 whole entry) above, with I4A, I8S, P22Q, H40Y, I61V, E193D, N194H, I269V, S331N, T335N counted along it

B1: 210309-1-C (antibody, mouse IgG1, V domains shown)
VH: QVHLQQSGAELARPGASVKLSCKASGYSFTAYGISWVQQRTGQGLEWIGEIYPRSGNTYYSEKFKGKATLTADKSSSTAYMELRSLTSEDSAVYFCARESLLKRLGWYFDVWGTGTTVTVSS
VL: DIQMTQSPASLSASVGETVTITCRASQNIYSFLAWYQQKQGNSPQLLVYNAKTLAEGVPSRFSGSGSGTQFSLKINSLQPEDFGSYYCQHHYGPPLTFGVGTKLELK
notes: Mouse monoclonal from human LPA1 immunization
Mouse LPA1 [1]
  EC50: 1.8 nM
Human LPA1 [2]
  Intracellular cAMP signaling inhibition (Inhibition rate %/100 nM): 47%
Mouse LPA1 [3]
  Intracellular cAMP signaling inhibition (Inhibition rate %/100 nM): 20%
[4]
  binding result: no binding (tested: 25 g/mL (so in the source))
[5]
  binding result: no binding (tested: 25 g/mL (so in the source))
[6]
  binding result: no binding (tested: 25 g/mL (so in the source))
[7]
  binding result: no binding (tested: 25 g/mL (so in the source))
Human LPA1 [8]
  Intracellular cAMP signaling inhibition IC50: 25.1 nM
Human LPA1 [9]
  EC50: 1.7 nM

B2: 210309-2-A (antibody, mouse IgG1, V domains shown)
VH: B1 VH with H3Q, S28T, A31S, Q38K, S61N, K67R, L101I, K103L
VL: B1 VL with E17G, Q27E, S31R, N42K, S85I, V100A
notes: as for B1
Mouse LPA1 [1]
  EC50: 2.1 nM
Human LPA1 [2]
  Intracellular cAMP signaling inhibition (Inhibition rate %/100 nM): 32%
Mouse LPA1 [3]
  Intracellular cAMP signaling inhibition (Inhibition rate %/100 nM): 32%
[4]
  binding result: no binding (tested: 25 g/mL (so in the source))
[5]
  binding result: no binding (tested: 25 g/mL (so in the source))
[6]
  binding result: no binding (tested: 25 g/mL (so in the source))
[7]
  binding result: no binding (tested: 25 g/mL (so in the source))
Human LPA1 [8]
  Intracellular cAMP signaling inhibition IC50: 21.8 nM
Human LPA1 [9]
  EC50: 1.4 nM

B3: 210309-1-G (antibody, mouse IgG1, V domains shown)
VH: QVQLQQSGAELARPGASMKLSCRASGYTFTSYGISWVKQRTGQGLEWIGEIYPRSGVTYYNEKFKGRATLTADKSSSTAFMELRSLTSEDSAVYFCARESISLRLGWYFDVWGTGTTVTVSS
VL: B1 VL with E17D, Q27E, S31R, G41R, N42K, Q45H, V100A, K107T
notes: as for B1
Mouse LPA1 [1]
  EC50: 2.4 nM
Human LPA1 [2]
  Intracellular cAMP signaling inhibition (Inhibition rate %/100 nM): 34%
Mouse LPA1 [3]
  Intracellular cAMP signaling inhibition (Inhibition rate %/100 nM): 36%
[4]
  binding result: no binding (tested: 25 g/mL (so in the source))
[5]
  binding result: no binding (tested: 25 g/mL (so in the source))
[6]
  binding result: no binding (tested: 25 g/mL (so in the source))
[7]
  binding result: no binding (tested: 25 g/mL (so in the source))
Human LPA1 [8]
  Intracellular cAMP signaling inhibition IC50: 40.9 nM
Mouse LPA1 [10]
  Intracellular cAMP signaling inhibition IC50: 197 nM
Human LPA1 [9]
  EC50: 1.8 nM

B4: 210310-1-D (antibody, mouse IgG1, V domains shown)
VH: QVQVQQSGAELARPGASVRLSCKASGYTFTSFGVNWVKQRTGQGLEWIGQIYPRTGTTYHNERFKGKATLTTDKSSSTAYMELRSLTSEDSAVYFCAREGDRYSLAYWGQGTLVTVSA
VL: B1 VL with Q27E, S31R, N42K, A55V, S77N, P94I, V100A
notes: as for B1
Mouse LPA1 [1]
  EC50: 2.1 nM
Human LPA1 [2]
  Intracellular cAMP signaling inhibition (Inhibition rate %/100 nM): 22%
Mouse LPA1 [3]
  Intracellular cAMP signaling inhibition (Inhibition rate %/100 nM): 25%
[4]
  binding result: no binding (tested: 25 g/mL (so in the source))
[5]
  binding result: no binding (tested: 25 g/mL (so in the source))
[6]
  binding result: no binding (tested: 25 g/mL (so in the source))
[7]
  binding result: no binding (tested: 25 g/mL (so in the source))
Human LPA1 [8]
  Intracellular cAMP signaling inhibition IC50: 60.5 nM
Human LPA1 [9]
  EC50: 2.7 nM

B5: 211222-1-A (antibody, mouse IgG1, V domains shown)
VH: B4 VH with Q5H, T55S, T72A
VL: B1 VL with Q27E, S31R, N42K, Y49S, S77Y, S85N, P94I, V100A
notes: as for B1
Mouse LPA1 [1]
  EC50: 2 nM
Human LPA1 [2]
  Intracellular cAMP signaling inhibition (Inhibition rate %/100 nM): 1%
Mouse LPA1 [3]
  Intracellular cAMP signaling inhibition (Inhibition rate %/100 nM): 30%
[4]
  binding result: no binding (tested: 25 g/mL (so in the source))
[5]
  binding result: no binding (tested: 25 g/mL (so in the source))
[6]
  binding result: no binding (tested: 25 g/mL (so in the source))
[7]
  binding result: no binding (tested: 25 g/mL (so in the source))
Human LPA1 [8]
  Intracellular cAMP signaling inhibition IC50: 69.9 nM
Human LPA1 [9]
  EC50: 2.3 nM

B6: 210420-1-H (antibody, mouse IgG1, V domains shown)
VH: QFQLQQSGAELARPGASVKLSCKASGYTFASFGISWVKQRTGQGLEYIGEIYPRSGTTYFNEKFRGKATLTADKSSSTAYMELRSLTSEDSAVYFCAREGVRRYAMDYWGQGTSVTVSS
VL: B1 VL with M4V, Q27G, N42K, N76S, P94I, V100G, E105D
notes: Mouse monoclonal from mouse LPA1 immunization
Mouse LPA1 [1]
  EC50: 1.6 nM
Human LPA1 [2]
  Intracellular cAMP signaling inhibition (Inhibition rate %/100 nM): 22%
Mouse LPA1 [3]
  Intracellular cAMP signaling inhibition (Inhibition rate %/100 nM): 37%
[4]
  binding result: no binding (tested: 25 g/mL (so in the source))
[5]
  binding result: no binding (tested: 25 g/mL (so in the source))
[6]
  binding result: no binding (tested: 25 g/mL (so in the source))
[7]
  binding result: no binding (tested: 25 g/mL (so in the source))
Human LPA1 [8]
  Intracellular cAMP signaling inhibition IC50: 49.1 nM
Human LPA1 [9]
  EC50: 2.5 nM
